Reference: the supplement of paper PMC7877785
± gives the uncertainty stated by the source.

Assay: self-splicing fitness, log relative to wild type (ln ratio); higher = more splicing; Tetrahymena group I intron in knt gene, E. coli kanamycin selection, DiMSum; sequences stand for … in CUCUCU…GGAGGGAAAAGUUAUCAGGCAUGCACCUGGUAGCUAGUCUUUAAACCAAUAGAUUGCAUCGGUUUAAAAGGCAAGACCGUCAAAUUGCGGGAAAGGGGUCAACAGCCGUUCAGUACCAAGUCUCAGGGGAAACUUUGAGAUGGCCUUGCAAAGGGUAUGGUAAUAAGCUGACGGACAUGGUCCUAACCACGCAGCCAAGUCCUAAGUCAACAGAUCUUCUGUUGAUAUGGAUGCAGUUCACAGACUAAAUGUCGGUCGGGGAAGAUGUAUUCUUCUCAUAAGAUAUAGUCGGACCUCUCCUUAAUGGGAGCUAGCGGAUGAAGUGAUGCAACACUGGAGCCGCUGGGAACUAAUUUGUAUGCGAAAGUAUAUUGAUUAGUUUUGGAGUACUCGUGGUCG
Outline: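 Library with all eight P1ex-region intron nucleotides randomised, intron inside the knt kanamycin-resistance gene on pET-22b(+), in E. coli BL21(DE3). Cells grew overnight at 37°C or 30°C on LB agar with or without 25 μg/mL kanamycin (plus 100 μg/mL carbenicillin, 50 μM IPTG, 0.2% rhamnose), in six replicate transformations. Pooled colonies were amplicon-sequenced on Illumina HiSeq 2500. DiMSum fitness is the error-weighted combination of wild-type-normalised replicate fold changes, kanamycin versus none.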

Sequence | self-splicing fitness (ln) (30 °C) | self-splicing fitness (ln) (37 °C)
UCAAAGCAAUAUUACGCGGA | -2.87 ± 0.13 | -1.37 ± 0.11
CUUUAGCAAUAUUACGUUUG | -2.43 ± 0.17 | -1.5 ± 0.17
AACAAGCAAUAUUACGUGUC | -4.91 ± 0.21 | -2.96 ± 0.095
GGUCAGCAAUAUUACGGCUU | -1.18 ± 0.087 | -0.0465 ± 0.12
GCUUAGCAAUAUUACGGCUG | -3.18 ± 0.28 | -2.21 ± 0.28
CCUGAGCAAUAUUACGGAAC | -2.63 ± 0.33 | -1.66 ± 0.31
GUCUAGCAAUAUUACGUAAC | -0.708 ± 0.13 | -0.195 ± 0.13
AGGGAGCAAUAUUACGCAGU | -2.41 ± 0.47 | -1.44 ± 0.33
GGCAAGCAAUAUUACGCCCU | -2.53 ± 0.26 | -0.495 ± 0.19
GUUGAGCAAUAUUACGAGUA |  | -1.41 ± 0.39
GAAUAGCAAUAUUACGCGCA | -0.334 ± 0.066 | -0.494 ± 0.074
CUGGAGCAAUAUUACGAAGU | -2.22 ± 0.37 | -2.38 ± 0.43
CGUUAGCAAUAUUACGGUCC |  | -1.08 ± 0.48
CACUAGCAAUAUUACGACGA | -2.06 ± 0.16 | -1.16 ± 0.17
UAUGAGCAAUAUUACGAGUA | -2.16 ± 0.19 | -0.862 ± 0.18
GAUUAGCAAUAUUACGCCAA | -3.48 ± 0.31 | -1.91 ± 0.25
UGAAAGCAAUAUUACGCACC | -0.796 ± 0.2 | -0.513 ± 0.26
AAACAGCAAUAUUACGUGAA | -1.92 ± 0.073 | -0.646 ± 0.072
CACUAGCAAUAUUACGCGGA | -3.19 ± 0.25 | -1.85 ± 0.18

Sequence | self-splicing fitness (ln) (30 °C) | self-splicing fitness (ln) (37 °C)
CUUCAGCAAUAUUACGGAUC | -1.38 ± 0.08 | -0.259 ± 0.1
CUAGAGCAAUAUUACGCCUC | -3.5 ± 0.2 | -2.88 ± 0.34
AGAAAGCAAUAUUACGUAUC | -3.62 ± 0.3 | -2.34 ± 0.24
CGGGAGCAAUAUUACGAGAC | -3.18 ± 0.45 | -2.45 ± 0.44
GCCCAGCAAUAUUACGCGGU | -3.33 ± 0.16 | -3.02 ± 0.19
AGAAAGCAAUAUUACGAUUA | -0.175 ± 0.12 | -0.183 ± 0.15
CGCCAGCAAUAUUACGACUU | -3.35 ± 0.2 | -1.82 ± 0.18
UUCAAGCAAUAUUACGGGCG | -0.977 ± 0.077 | -0.629 ± 0.1
GGGGAGCAAUAUUACGUCGA | 0.294 ± 0.28 | 
GAACAGCAAUAUUACGAUGU | -1.05 ± 0.043 | -0.336 ± 0.06
GCACAGCAAUAUUACGUUAA | -1.04 ± 0.055 | -0.544 ± 0.065
CACGAGCAAUAUUACGUGCC |  | -3.4 ± 0.28
AGAGAGCAAUAUUACGGUGC | -4.34 ± 0.42 | -2.07 ± 0.29
CUACAGCAAUAUUACGCCUG | -1.43 ± 0.1 | -0.209 ± 0.097
AACGAGCAAUAUUACGCGAC | -2.91 ± 0.21 | -2.03 ± 0.27
AAUAAGCAAUAUUACGUGAA | -2.46 ± 0.16 | -0.674 ± 0.13
GAGCAGCAAUAUUACGUAGC | -0.99 ± 0.11 | -1.65 ± 0.13
GUUAAGCAAUAUUACGGAGG | -4 ± 0.23 | -1.56 ± 0.19
GAAGAGCAAUAUUACGAAAG | -4.13 ± 0.31 | -2.41 ± 0.18
